Assay results from patent publication US7402570.

Legend:
[1] = molecular target: human p53 protein, full length (human) (UniProt P04637); assay: cell-based or functional assay
[2] = molecular target: lexA-p53 (p53 codons 1-73) fusion (human); assay: cell-based or functional assay

human p53 protein, full length (human), sequence (P04637 whole entry, the tested form may be a part): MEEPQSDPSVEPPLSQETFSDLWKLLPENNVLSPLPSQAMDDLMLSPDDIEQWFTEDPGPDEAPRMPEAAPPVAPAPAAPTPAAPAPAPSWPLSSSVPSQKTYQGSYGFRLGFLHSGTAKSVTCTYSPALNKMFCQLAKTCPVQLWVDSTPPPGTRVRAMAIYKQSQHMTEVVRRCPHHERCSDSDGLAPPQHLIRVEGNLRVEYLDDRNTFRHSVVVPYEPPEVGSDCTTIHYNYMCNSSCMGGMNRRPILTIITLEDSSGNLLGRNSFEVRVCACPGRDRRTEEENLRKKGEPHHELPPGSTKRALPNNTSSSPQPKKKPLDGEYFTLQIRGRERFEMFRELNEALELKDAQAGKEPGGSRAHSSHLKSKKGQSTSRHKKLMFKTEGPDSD

## human MDM2 protein (hMDM2), full length
[1]
  inhibition of p53-mediated transactivation of a p53-responsive β-galactosidase reporter in yeast: 16 fold
[2]
  decrease in lexA-responsive β-galactosidase reporter activity in yeast: 5 fold
